± gives the standard deviation of the averaged measurements.
Tested on: Saccharomyces cerevisiae
Test: protein stability index of tFT-peptide fusion (C-terminal peptide) (PSI (0-1 scale)); higher = more stable (slower turnover)
Settings: genetic background: wild type; temperature: 30 C
Description: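 Multiplexed protein stability (MPS) profiling in S. cerevisiae. Random 12-aa peptides (tFT-X12 library) are fused to the C-terminus of a sfGFP-mCherry tandem fluorescent timer, after mCherry and a GGGS linker. Cells are FACS-sorted into 8 mCherry/sfGFP bins and deep-sequenced. The protein stability index (PSI) is the read-weighted bin average, scaled from 0 (unstable) to 1 (stable). Only peptides with >10 reads are reported; cells were grown at 30 °C in SC-His with glucose.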
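Also: PSI is a weighted mean of sequencing reads over stability bins, variants kept only with over 10 reads, mCherry proximal and sfGFP distal, peptide attached via GGGS linker.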

Row | Sequence | protein stability index
1 | DVSIFTNELGFY | 0.763 ± 0.01
2 | DWFGGSVRVDEN | 0.693 ± 0.055
3 | DWGAGAASRADR | 0.708 ± 0.015
4 | DWHLLVRRPFSR | 0.714 ± 0.042
5 | DWWFGQVYLSKE | 0.705 ± 0.011
6 | DWWLPLFDWAKL | 0.872 ± 0.025
7 | DYLVRGPPRASG | 0.629 ± 0.021
8 | DYNQWSAHHYGV | 0.693 ± 0.029
9 | DYRLWFRGLPSL | 0.697 ± 0.035
10 | EAAVTESVTGKR | 0.679 ± 0.0088
11 | EAIMNSLLFAVD | 0.664 ± 0.0088
12 | EAKRSRCESAEI | 0.672 ± 0.01
13 | EARLGGESSAWG | 0.655 ± 0.053
14 | EAVNLDSWAAGQ | 0.828 ± 0.058
15 | EAYRVTYPYMYP | 0.726 ± 0.0086
16 | ECFVCGGGILGG | 0.637 ± 0.09
17 | ECGLGGGGGLGV | 0.689 ± 0.077
18 | ECSPRQVPSLAE | 0.694 ± 0.028
19 | ECVPEVACCPWR | 0.729 ± 0.03
20 | EDCTKNPERDNS | 0.68 ± 0.048
21 | EDMRGATGRGAG | 0.669 ± 0.028
22 | EDTMGKTASHTR | 0.699 ± 0.019
23 | EEEGRRREEETS | 0.67 ± 0.041
24 | EEGARAAGGEPQ | 0.68 ± 0.036
25 | EEREGPVGKGGG | 0.708 ± 0.044

Row | Sequence | protein stability index
26 | EESNEERDQEKT | 0.63 ± 0.0065
27 | EEVKKRTLKVID | 0.738 ± 0.021
28 | EEWRRRSTKERR | 0.641 ± 0.013
29 | EFALVFVRARRA | 0.586 ± 0.047
30 | EFANKGIKINTA | 0.625 ± 0.019
31 | EFLGTVRSVWRK | 0.669 ± 0.086
32 | EFLVSVRPFASP | 0.696 ± 0.032
33 | EFPSFHDQGAYM | 0.738 ± 0.062
34 | EFSWGGLAGSFG | 0.68 ± 0.024
35 | EFTGVYLWERGW | 0.7 ± 0.041
36 | EGDGQGGGGQGG | 0.695 ± 0.011
37 | EGEERGEGQVRA | 0.675 ± 0.0068
38 | EGGCCRMVGVVK | 0.633 ± 0.0024
39 | EGGGASELGAPN | 0.567 ± 0.095
40 | EGGGGKGRKRRA | 0.712 ± 0.022
41 | EGGIYLQMCVGS | 0.616 ± 0.035
42 | EGGTGNHSVSNQ | 0.654 ± 0.022
43 | EGGVGGRAPRVR | 0.747 ± 0.098
44 | EGITFGNDECWC | 0.782 ± 0.095
45 | EGLNASGGGSGG | 0.644 ± 0.07
46 | EGLPGGLRGCLR | 0.687 ± 0.021
47 | EGLVRVCSRHYR | 0.67 ± 0.0083
48 | EGNPPTRPRSLG | 0.682 ± 0.052
49 | EGRDDIVEKKRR | 0.66 ± 0.063
50 | EGREGQRHRRVI | 0.669 ± 0.01

Row | Sequence | protein stability index
51 | EGREGVFGEGRA | 0.703 ± 0.031
52 | EGRKTLWEGNRG | 0.609 ± 0.059
53 | EGRRGVGGAWEG | 0.6573 ± 0.0037
54 | EGSSGVLESRAG | 0.671 ± 0.026
55 | EGSSVITFAGGG | 0.664 ± 0.046
56 | EGTSYWDPSVPG | 0.741 ± 0.045
57 | EHERQQYKNYNK | 0.671 ± 0.057
58 | EIERTKNEGEEG | 0.67 ± 0.058
59 | EIRKGGVRSTSN | 0.668 ± 0.13
60 | EIVTQQKIMDKK | 0.711 ± 0.012
61 | EKCIGKRGLTKY | 0.703 ± 0.022
62 | EKERKIKEREVT | 0.631 ± 0.018
63 | EKGSKTGNKPQT | 0.688 ± 0.048
64 | EKIKKQITRTRR | 0.6652 ± 0.0053
65 | EKIVHEGAHGWR | 0.681 ± 0.02
66 | EKKKKRNKVNQN | 0.709 ± 0.064
67 | EKKYKKKYKKKE | 0.641 ± 0.031
68 | EKMILEIKRGRI | 0.688 ± 0.036
69 | EKNDKEYKRSIS | 0.665 ± 0.06
70 | EKNKRMEVKAKR | 0.67 ± 0.0096
71 | EKNTNVDHNRNF | 0.7384 ± 0.0061
72 | EKPKEGKNETKK | 0.734 ± 0.042
73 | EKQKNLPQEAKQ | 0.7 ± 0.02
74 | EKRINLKKRGKT | 0.669 ± 0.064
75 | ELCAFLFYPFVV | 0.599 ± 0.039

Row | Sequence | protein stability index
76 | ELEGKIMNITVW | 0.661 ± 0.024
77 | ELGNREGVGYEV | 0.781 ± 0.17
78 | ELKRVCVHRTER | 0.7 ± 0.025
79 | ELLHMAAGLGGR | 0.643 ± 0.015
80 | ELNSGLLRSKET | 0.661 ± 0.0095
81 | ELQVSGNTIIVV | 0.529 ± 0.032
82 | ELRSAIRAVPFL | 0.737 ± 0.028
83 | ELRSVLDRDVRV | 0.725 ± 0.049
84 | ELWCLGVLGGDV | 0.708 ± 0.0089
85 | ENCPPETLNRGE | 0.686 ± 0.081
86 | ENLFLRRVWFCR | 0.686 ± 0.022
87 | ENLRKLGIALWG | 0.682 ± 0.14
88 | ENQGEKQKKKKR | 0.685 ± 0.013
89 | ENRGIEITGKRS | 0.727 ± 0.022
90 | ENVAKKEKITKK | 0.694 ± 0.02
91 | EPAAHCGERRHL | 0.608 ± 0.064
92 | EPAFMRRFMSNK | 0.657 ± 0.016
93 | EPKLPPCPTPPS | 0.721 ± 0.012
94 | EPRWPCNVAGIV | 0.706 ± 0.13
95 | EQKYHTCEDAQK | 0.685 ± 0.1
96 | EQQTPIKKNKQR | 0.826 ± 0.036
97 | EQSERGIQQGTN | 0.633 ± 0.02
98 | EQWSAHSMLSGR | 0.705 ± 0.026
99 | EREKERNKNGKY | 0.671 ± 0.013
100 | ERKHIISKGMNN | 0.608 ± 0.041

Row | Sequence | protein stability index
101 | ERKRPLAKKTKN | 0.643 ± 0.055
102 | ERNSKKKRKRRL | 0.701 ± 0.08
103 | ERTDEKTAEKER | 0.7012 ± 0.0049
104 | ERYLCVGIAHGP | 0.706 ± 0.02
105 | ESAGESRREFGG | 0.693 ± 0.011
106 | ESAGPSIYKLVT | 0.638 ± 0.0092
107 | ESDSEITYNKKQ | 0.729 ± 0.012
108 | ESGDKYKRRTQP | 0.699 ± 0.052
109 | ESIQAASANDSQ | 0.688 ± 0.043
110 | ESIQGRHRMSCL | 0.6912 ± 0.006
111 | ESLLFICAHALV | 0.566 ± 0.017
112 | ESLVIIIAGSMF | 0.567 ± 0.15
113 | ESLVSFTRPFSR | 0.748 ± 0.026
114 | ESNFTLIRKIRT | 0.64 ± 0.0065
115 | ESQSLLLFQEPS | 0.696 ± 0.057
116 | ESRARRRQGGKR | 0.738 ± 0.015
117 | ESRVTNKQSYQA | 0.678 ± 0.03
118 | ETALKVGSVGGV | 0.71037 ± 6.9e-05
119 | ETCIWDGRPIAS | 0.723 ± 0.085
120 | ETGTRELIRQWV | 0.718 ± 0.02
121 | EVGFPGRSWGAG | 0.689 ± 0.07
122 | EVGWMPFYLVGL | 0.67 ± 0.11
123 | EVKKTFCFSKDI | 0.672 ± 0.011
124 | EVPGALISLHFY | 0.654 ± 0.038
125 | EVRCVFTGWHSS | 0.785 ± 0.096

Row | Sequence | protein stability index
126 | EVSRCRTVPVWL | 0.662 ± 0.07
127 | EVTGGRGGEGGV | 0.694 ± 0.046
128 | EVVGGSESRELG | 0.6569 ± 0.0027
129 | EVWGGFGGGGGS | 0.72 ± 0.027
130 | EWCVRKATRDIE | 0.659 ± 0.014
131 | EWGAGGVVVGGW | 0.718 ± 0.043
132 | EWLCLRGCCVLY | 0.667 ± 0.015
133 | EWLRYNKDKRKI | 0.774 ± 0.14
134 | EWQAGSDRRFYW | 0.618 ± 0.013
135 | EWSGWVGKCGRG | 0.6644 ± 0.0059
136 | EYCSSCLADLSP | 0.69 ± 0.074
137 | EYYRYLPVLIRL | 0.467 ± 0.055
138 | FAARASLSPLTR | 0.855 ± 0.2
139 | FAFSDFHLVVFF | 0.684 ± 0.011
140 | FALRDLHLSCFA | 0.577 ± 0.012
141 | FANKLYSVFMDN | 0.655 ± 0.13
142 | FAPTRAAPVTVS | 0.5712 ± 0.0057
143 | FAPVPPRATFSH | 0.691 ± 0.022
144 | FASFLSIPTRFS | 0.712 ± 0.02
145 | FCCFFFPALCCL | 0.493 ± 0.024
146 | FCCVETRRCVRL | 0.717 ± 0.16
